Results from US20250129404A1, “RAPID, COLORIMETRIC ASSAY TO DETECT ACETYLTRANSFERASE ACTIVITY IN BIOLOGICAL SAMPLES” (THE FEINSTEIN INSTITUTES FOR MEDICAL RESEARCH, priority 2023, published 2025).

Key:
[1] = molecular target: T1, recombinant human ChAT (rChAT) (Homo sapiens, UniProt P28329); assay: Choline acetyltransferase (ChAT) colorimetric activity assay; format: biochemical
T1 construct: recombinant human ChAT corresponding to residue 119-748; His tag (N-histidine tag) (N); made in house; host or cells: E. coli BL21-Gold (DE3)
T1 sequence (P28329 119-748): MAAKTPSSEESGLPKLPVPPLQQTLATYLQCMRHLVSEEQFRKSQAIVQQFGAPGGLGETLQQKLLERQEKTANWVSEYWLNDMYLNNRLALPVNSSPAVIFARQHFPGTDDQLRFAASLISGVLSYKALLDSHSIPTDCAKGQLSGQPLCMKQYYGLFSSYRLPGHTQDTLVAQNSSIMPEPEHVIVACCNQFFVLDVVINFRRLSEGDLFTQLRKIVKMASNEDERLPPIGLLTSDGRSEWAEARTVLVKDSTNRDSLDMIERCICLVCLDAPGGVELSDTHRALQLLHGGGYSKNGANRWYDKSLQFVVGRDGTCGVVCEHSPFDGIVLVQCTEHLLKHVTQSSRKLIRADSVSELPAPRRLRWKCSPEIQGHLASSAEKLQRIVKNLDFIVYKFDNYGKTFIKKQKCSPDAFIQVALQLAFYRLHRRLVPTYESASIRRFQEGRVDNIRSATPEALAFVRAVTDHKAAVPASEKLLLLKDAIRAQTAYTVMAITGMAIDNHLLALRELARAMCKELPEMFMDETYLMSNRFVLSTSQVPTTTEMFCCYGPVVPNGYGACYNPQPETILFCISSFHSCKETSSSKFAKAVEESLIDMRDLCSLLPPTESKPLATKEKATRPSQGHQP
Protocol: Recombinant ChAT protein and ChAT PEGylation. All recombinant ChAT (rChAT) protein used was produced as described previously (10). Briefly, recombinant human ChAT corresponding to residue 119-748 (EC2.3.1.6, UnitProt 28329-3) with a N-histidine tag was expressed in E. coli BL21-Gold (DE3) cells and purified using high affinity Ni-charged columns. The purified recombinant ChAT was dialyzed at 4° C. in buffer containing 0.2×PBS, 10% glycerol and 0.5 mM TCEP (tris(2-carboxyethyl) phosphine), and subjected to extensive Triton X-114 extraction to remove contaminating endotoxins. After purification, PEGylation was carried out using MS (PEG) 12 reagent to extend the plasma half-life of the enzyme (10). Following PEGylation, the protein was dialyzed in buffer and once again extracted with Triton-X-114 to remove contaminating endotoxins. A Bradford protein assay (Bio-Rad) was used to determine rChAT protein concentration. Commercial recombinant ChAT protein was purchased from My BioSource.
Choline Acetyltransferase activity assay. An assay was developed to measure ChAT activity using an adapted version of the colorimetric assay (Reactions 1-3) (13).
Briefly, biological samples and choline chloride standards are diluted in assay buffer (containing 10 mM Tris-HCl, 150 mM NaCl, 1 mM EDTA, and 0.05% Triton X-100). 100 μl of each standard and 40 μl of each sample are added in triplicate to a 96-well plate. […] The assay is developed by addition of 150 μL of 3′3′5′5′ Tetramethylbenzidine (TMB) to all wells, and the plate is immediately analyzed spectrophotometrically at 650 nm. ChAT Activity is determined from the interpolated amount of choline depleted during the reaction, divided by the reaction time and sample volume, and multiplied by the sample dilution factor (Equation 1). In all biological samples, ChAT activity is normalized to total protein concentration, measured using Bradford protein assay (Bio-Rad) and is represented as nmol/min/mg of total protein. […]

TNF = assay: Acute endotoxemia (LPS), TNF by ELISA; format: in vivo, mouse; settings: 1 mg/kg i.p. 30 min prior to 0.3 mg/kg LPS, 90 min after LPS
Protocol: Endotoxemia. Lipopolysaccharide (LPS, Escherichia coli 0111: B4; Sigma) was sonicated for 30 min, vortexed and administered intraperitoneally (LD50 7 mg/kg). Animals were euthanized by CO2 asphyxiation 90 min post-LPS administration and blood was collected by cardiac puncture using heparinized syringes. Blood samples were kept on ice and centrifuged for 10 minutes at 5000 g. Plasma TNF levels were quantified using a commercially available ELISA (Invitrogen). Plasma total protein concentration was determined using a Bradford Protein Assay (Bio-Rad). Sepsis scores were determined at respective timepoints up to 72 hours following endotoxin administration as described previously (19), where a maximum score of 28 per mouse denotes the greatest clinical sickness score.
Administration of PEG-ChAT and Anti-ChAT Neutralizing Antibody. Pegylated recombinant ChAT protein or a custom made monoclonal anti-ChAT antibody (GenScript) was administered intraperitoneally at a 1 mg/kg dose 30 minutes prior to LPS administration. Acute endotoxemia was induced with a dose of 0.3 mg/kg LPS. Animals were returned to their home cages and euthanized 90 minutes after LPS administration.

[2] = test system: DSS-induced experimental colitis in C57Bl/6 male mice; assay: DSS colitis model; format: in vivo, mouse; settings: for histological damage (inflammation severity, crypt damage, extent of inflammation): blinded H&E scoring, day 14 (FIG. 4E-F)
Protocol: DSS Colitis Model. DSS (DSS salt, colitis grade (MW: 36000-50000), MP Biomedicals, CA) was added to the drinking water in a final concentration of 3% (wt/vol) for 7 days. The water was changed to regular water on day 8 and maintained till the end of the experiment. Survival and the disease activity index (DAI) were evaluated daily in a blinded manner. On day 14, mice were euthanized under CO2 asphyxiation and blood and tissue were collected. Colons were removed, cleaned, and sectioned longitudinally. The luminal contents were removed with cold phosphate buffered saline (PBS). Starting from the most distal end (rectum) the colon was rolled with luminal side facing upward, resulting in a “Swiss roll” with the distal end in the center and the proximal colon in the outer side of the roll. The Swiss roll was held together with a small pin and placed in 10% buffered formalin overnight at 4° C. The fixed tissue was then embedded in paraffin, sectioned at 10 μm and stained with hematoxylin and eosin. Histological analysis was carried out in a blinded manner by three independent researchers. The degree of colon inflammation was scored under the light microscope (Zeiss, Germany) using the following criteria: inflammation severity (0—none; 1—mild; 2—moderate; 3—severe), inflammation extent (0—none; 1—mucosal; 2—mucosal and submucosal; 3—transmural), Crypt damage (0—none; 1—basal, ⅓ damaged; 2—basal, ⅔/damaged; 3—crypt loss), damage distribution (0-0%; […]; 3-51-75%; 4-76-100%). Each mouse tissue was scored over 6 different sites of the colon. Serum cytokine levels (IL-6, TNFα and MCP-1) were analyzed using mouse V-Plex Biomarker Group 1 array, and the assay was performed according to the manufacturer's instructions.

[3] = molecular target: T2, recombinant human ChAT (rChAT), substrate choline (Homo sapiens, UniProt P28329); assay: Michaelis-Menten kinetic constants, Coenzyme A detection assay; format: biochemical; settings: rChAT 2 μg/mL; Michaelis-Menten / Lineweaver Burke (FIG. 7C-D)
T2 construct: recombinant human ChAT corresponding to residue 119-748; His tag (N-histidine tag) (N); made in house; host or cells: E. coli BL21-Gold (DE3)
T2 sequence (P28329 119-748): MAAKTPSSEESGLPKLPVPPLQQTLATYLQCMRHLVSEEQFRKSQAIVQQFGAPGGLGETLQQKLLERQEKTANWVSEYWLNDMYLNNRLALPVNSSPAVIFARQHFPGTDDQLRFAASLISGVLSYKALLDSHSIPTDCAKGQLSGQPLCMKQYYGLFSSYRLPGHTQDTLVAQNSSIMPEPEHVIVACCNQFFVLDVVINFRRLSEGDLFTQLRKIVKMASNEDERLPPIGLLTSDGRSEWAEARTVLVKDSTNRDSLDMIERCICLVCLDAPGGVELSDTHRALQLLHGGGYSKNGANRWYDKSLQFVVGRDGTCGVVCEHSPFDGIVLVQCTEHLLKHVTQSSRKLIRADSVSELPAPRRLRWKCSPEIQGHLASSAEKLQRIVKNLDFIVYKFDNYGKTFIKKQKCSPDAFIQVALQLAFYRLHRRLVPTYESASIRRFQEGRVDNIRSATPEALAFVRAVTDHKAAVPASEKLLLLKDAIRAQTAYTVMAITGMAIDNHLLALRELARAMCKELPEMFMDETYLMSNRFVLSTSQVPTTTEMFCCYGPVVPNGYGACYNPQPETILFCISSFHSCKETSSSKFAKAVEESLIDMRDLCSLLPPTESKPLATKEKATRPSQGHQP
Protocol: Determination of Michaelis-Menten kinetic constants. To determine the Km constants for rChAT samples, a previously published Coenzyme A detection assay was used (12). Briefly, Coenzyme A standard was diluted in assay buffer. 100 μl of each standard and 40 μl of each sample was added to the 96-well plate in triplicate. 60 μl of Cocktail A was added to all sample wells. Immediately, 50 μl of Cocktail B was added to all sample and standard wells. The plate was immediately quantitated spectrophotometrically at 324 nm every 30 seconds for 30 minutes. Enzyme velocity was quantified as CoA formed (nmol/min/ml).
Data analysis and statistics. Data were analyzed using Graphpad Prism 9.0 software using two-tailed unpaired […] for comparisons between 2 groups or two-way ANOVA or mixed-effects model followed with Šídák's multiple comparisons test for comparisons of 3 or more groups. Michaelis Menten kinetic constants were determined using the Michaelis-Menten approximation to calculate Km and Vmax from a velocity vs. substrate relationship. Correlation coefficients were calculated using a nonparametric Spearman Correlation. For all analyses, P≤0.05 was considered statistically significant.

hypertensive animals = settings: background statement; cited from earlier work

Molecule | IC50 ([1]; preincubation of 0.4 mg/mL rChAT with inhibitor, room temperature 30 minutes (FIG. 7E)) [nM] | serum TNF vs vehicle (TNF) | spleen TNF vs vehicle (TNF) | serum TNF vs vehicle (TNF; listed as PEG-ChAT antibody) | disease activity index (DAI) vs vehicle ([2]; 1 mg/kg i.p. twice daily from day 7, from day 9 (FIG. 4C)) | severity of colitis ([2]; 1 mg/kg i.p. twice daily from day 7 to day 14) | weight loss vs vehicle ([2]; 1 mg/kg i.p. twice daily from day 7 to day 14 (FIG. 4B)) | histological damage (inflammation severity, crypt damage, extent of inflammation) [2] | colon length ([2]; day 14 (FIG. 4D)) | circulating IL-6 vs vehicle ([2]; serum, day 14 (FIG. 5A)) | circulating TNF vs vehicle ([2]; serum, day 14 (FIG. 5B)) | circulating MCP-1 vs vehicle ([2]; serum, day 14 (FIG. 5C)) | Vmax [3] | blood pressure (hypertensive animals) | detected activity after thermal denaturing, in comparison to native preparation ([1]; 70° C. for 30 minutes (FIG. 7F), P<0.01) | enzymatic activity compared to a commercially available ChAT ([1]; FIG. 7B, P<0.01)
C[N+](C)(C)CCC(=O)c1cccc2ccccc12 [alpha-NETA, reference compound] | 148 |  |  |  |  |  |  |  |  |  |  |  |  |  |  | 
PEG-ChAT: recombinant ChAT PEGylated using MS (PEG) 12 reagent (conjugate, UniProt P28329 1-748, looked up, PEGylated with MS(PEG)12, recombinant ChAT PEGylated using MS (PEG) 12 reagent) Choline O-acetyltransferase: MGLRTAKKRGLGGGGKWKREEGGGTRGRREVRPACFLQSGGRGDPGDVGGPAGNPGCSPHPRAATRPPPLPAHTPAHTPEWCGAASAEAAEPRRAGPHLCIPAPGLTKTPILEKVPRKMAAKTPSSEESGLPKLPVPPLQQTLATYLQCMRHLVSEEQFRKSQAIVQQFGAPGGLGETLQQKLLERQEKTANWVSEYWLNDMYLNNRLALPVNSSPAVIFARQHFPGTDDQLRFAASLISGVLSYKALLDSHSIPTDCAKGQLSGQPLCMKQYYGLFSSYRLPGHTQDTLVAQNSSIMPEPEHVIVACCNQFFVLDVVINFRRLSEGDLFTQLRKIVKMASNEDERLPPIGLLTSDGRSEWAEARTVLVKDSTNRDSLDMIERCICLVCLDAPGGVELSDTHRALQLLHGGGYSKNGANRWYDKSLQFVVGRDGTCGVVCEHSPFDGIVLVQCTEHLLKHVTQSSRKLIRADSVSELPAPRRLRWKCSPEIQGHLASSAEKLQRIVKNLDFIVYKFDNYGKTFIKKQKCSPDAFIQVALQLAFYRLHRRLVPTYESASIRRFQEGRVDNIRSATPEALAFVRAVTDHKAAVPASEKLLLLKDAIRAQTAYTVMAITGMAIDNHLLALRELARAMCKELPEMFMDETYLMSNRFVLSTSQVPTTTEMFCCYGPVVPNGYGACYNPQPETILFCISSFHSCKETSSSKFAKAVEESLIDMRDLCSLLPPTESKPLATKEKATRPSQGHQP |  | significantly attenuates | decrease | significantly ameliorated | significant reduction | significantly reduces | significant reduction | attenuates | significantly improves | significantly reduced | significantly reduced | significantly reduced |  |  |  | 
rChAT: recombinant human ChAT residue 119-748 with N-histidine tag, expressed in E. coli (protein, UniProt P28329 1-748, looked up) Choline O-acetyltransferase: MGLRTAKKRGLGGGGKWKREEGGGTRGRREVRPACFLQSGGRGDPGDVGGPAGNPGCSPHPRAATRPPPLPAHTPAHTPEWCGAASAEAAEPRRAGPHLCIPAPGLTKTPILEKVPRKMAAKTPSSEESGLPKLPVPPLQQTLATYLQCMRHLVSEEQFRKSQAIVQQFGAPGGLGETLQQKLLERQEKTANWVSEYWLNDMYLNNRLALPVNSSPAVIFARQHFPGTDDQLRFAASLISGVLSYKALLDSHSIPTDCAKGQLSGQPLCMKQYYGLFSSYRLPGHTQDTLVAQNSSIMPEPEHVIVACCNQFFVLDVVINFRRLSEGDLFTQLRKIVKMASNEDERLPPIGLLTSDGRSEWAEARTVLVKDSTNRDSLDMIERCICLVCLDAPGGVELSDTHRALQLLHGGGYSKNGANRWYDKSLQFVVGRDGTCGVVCEHSPFDGIVLVQCTEHLLKHVTQSSRKLIRADSVSELPAPRRLRWKCSPEIQGHLASSAEKLQRIVKNLDFIVYKFDNYGKTFIKKQKCSPDAFIQVALQLAFYRLHRRLVPTYESASIRRFQEGRVDNIRSATPEALAFVRAVTDHKAAVPASEKLLLLKDAIRAQTAYTVMAITGMAIDNHLLALRELARAMCKELPEMFMDETYLMSNRFVLSTSQVPTTTEMFCCYGPVVPNGYGACYNPQPETILFCISSFHSCKETSSSKFAKAVEESLIDMRDLCSLLPPTESKPLATKEKATRPSQGHQP |  |  |  |  |  |  |  | reduced |  |  |  |  | 0.05 Δ CoA (nmol/min) | normalizes | significantly reduced | significant increase
